Assay results published in patent publication US20050244819.

System: beta-Gal^PR, engineered E. coli beta-galactosidase with the HIV p6/PR cleavage site decapeptide inse [β-galactosidase: P00722]

TF-PR^D25N, HIV protease precursor with the D25N mutation at the catalytic residue Asp25
β-galactosidase activity: 0.178 µmol/min/mg
